T1: mouse tenascin-C rCd4-His-FBG (rat; mouse, UniProt P05540 207-392, limits assumed)
T1 construct: domain: domains 3 and 4; C-terminal FBG fusion; biotinylated in the ELISA screen; also called Mu TNC; mouse TNC rCd4-His-FBG; not shown: 6His tag
T1 sequence (chain (part 1 of 2)): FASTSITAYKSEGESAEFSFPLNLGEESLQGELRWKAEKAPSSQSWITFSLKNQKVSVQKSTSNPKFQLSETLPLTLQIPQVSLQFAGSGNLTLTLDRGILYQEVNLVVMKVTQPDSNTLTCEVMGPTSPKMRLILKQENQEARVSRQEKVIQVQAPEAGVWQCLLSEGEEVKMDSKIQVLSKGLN
T1 sequence (chain (part 2 of 2)): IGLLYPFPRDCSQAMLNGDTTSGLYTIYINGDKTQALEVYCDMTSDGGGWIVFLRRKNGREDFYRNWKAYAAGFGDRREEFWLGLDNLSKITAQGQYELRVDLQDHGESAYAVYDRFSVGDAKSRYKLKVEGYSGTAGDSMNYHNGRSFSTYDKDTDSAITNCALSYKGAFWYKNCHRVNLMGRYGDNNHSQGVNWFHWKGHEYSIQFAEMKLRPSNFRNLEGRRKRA

T2: human tenascin-C rCd4-His-FBG (rat; human, UniProt P05540 207-392, limits assumed)
T2 construct: domain: domains 3 and 4; C-terminal FBG fusion; biotinylated in the ELISA and HTRF screens; also called Hu TNC; human TNC rCd4-His-FBG; not shown: 6His tag
T2 sequence (chain (part 1 of 2)): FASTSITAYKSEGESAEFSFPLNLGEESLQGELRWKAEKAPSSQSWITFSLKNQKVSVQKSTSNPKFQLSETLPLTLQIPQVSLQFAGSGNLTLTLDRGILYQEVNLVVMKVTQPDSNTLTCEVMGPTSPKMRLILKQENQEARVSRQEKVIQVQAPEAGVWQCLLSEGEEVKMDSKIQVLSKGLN
T2 sequence (chain (part 2 of 2)): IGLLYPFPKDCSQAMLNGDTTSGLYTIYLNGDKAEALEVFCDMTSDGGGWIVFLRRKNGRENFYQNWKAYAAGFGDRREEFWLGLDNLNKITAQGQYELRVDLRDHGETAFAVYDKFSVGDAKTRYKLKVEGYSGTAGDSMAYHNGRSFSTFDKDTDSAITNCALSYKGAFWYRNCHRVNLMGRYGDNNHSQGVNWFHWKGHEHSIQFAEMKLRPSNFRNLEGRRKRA

T3: human tenascin-R rCd4-His-FBG (rat; human, UniProt P05540 207-392, limits assumed)
T3 construct: domain: domains 3 and 4; C-terminal FBG fusion; also called Hu TNR; human TNR rCd4-His-FBG; not shown: 6His tag
T3 sequence (chain (part 1 of 2)): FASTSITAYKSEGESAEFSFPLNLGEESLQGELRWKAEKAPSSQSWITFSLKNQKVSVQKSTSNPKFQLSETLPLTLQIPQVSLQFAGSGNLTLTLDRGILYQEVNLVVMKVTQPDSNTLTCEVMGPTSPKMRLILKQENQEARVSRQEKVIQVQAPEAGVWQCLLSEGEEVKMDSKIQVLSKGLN
T3 sequence (chain (part 2 of 2)): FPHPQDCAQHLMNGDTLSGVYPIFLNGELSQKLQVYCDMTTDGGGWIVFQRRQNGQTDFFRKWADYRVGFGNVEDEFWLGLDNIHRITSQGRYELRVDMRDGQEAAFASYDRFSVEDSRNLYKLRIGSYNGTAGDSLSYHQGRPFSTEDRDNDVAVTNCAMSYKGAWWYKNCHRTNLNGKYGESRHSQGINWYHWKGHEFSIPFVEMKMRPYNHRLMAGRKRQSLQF

B1: 165_13_B6 human IgG4 (antibody, V domains shown)
VH: QVQLVESGGGLVQPGRSLRLSCAASGFTFDDYAMHWVRQAPGKGLEWVSGISGSGGSTYYADSVKGRFTISRDNAKNSLYLQMNSLRAEDTALYYCAKGQKGEGDTFDIWGQGTMVTVSS
VL: DIQMTQSPASLPTPVGDRVTITCRASQYIQGFLNWYQQKPGKAPKLLIYDASNLETGVPSRFSGSGSGTDFTLTISSLQPEDFATYYCQQSYSTPQTFGQGTKVDIKR
notes: human IgG4 with hinge S241P
B2: 165_13_D1 human IgG4 (antibody, V domains shown)
VH: QVQLVESGGGLVQPGRSLRLSCAASGFTFDDYAMHWVRQAPGKGLEWVSGISGSGGSTYYADSVKGRFTISRDNAKNSLYLQMNSLRAEDTALYYCAKGTRGEGDTFDIWGQGTMVTVSS
VL: DIQMTQSPASLPTPVGDRVTITCRASQYIQGFLNWYQQKPGKAPKLLIYDASNLETGVPSRFSGSGSGTDFTLTISSLQPEDFATYYCQQSYSTPQTFGQGTKVDIKR
notes: human IgG4 with hinge S241P
B3: 161_01_F6 human IgG4 (antibody, V domains shown)
VH: EVRLVQSGAEVKKPGASVKVSCKVSGYTLTELSMHWVRQAPGKGLEWMGGFDPEDGETIYAQKFQGRVTMTEDTSTDTAYMELSSLRSEDTAVYYCATAQKENIANRHWGQGTLVTVSS
VL: DIQMTQSPASLPTSVGDRVTITCRASQYIQGFLNWYQQKPGKAPRLLIYAASTLQDGVPSRFSGSGYGTDFTLTISSLQPEDFATYYCQQSYSTPWTFGQGTKVEIKR
notes: human IgG4 with hinge S241P; also called 160_01_F6; Antibody 161 01 F6, also known as 160 01 F6 (derived from 2A5)
B4: 165_13_D4 human IgG4 (antibody, V domains shown)
VH: QVQLVESGGGLVQPGRSLRLSCAASGFTFDDYAMHWVRQAPGKGLEWVSGISGSGGSTYYADSVKGRFTISRDNAKNSLYLQMNSLRAEDTALYYCAKGTVGEGDTFDIWGQGTMVTVSS
VL: DIQMTQSPASLPTPVGDRVTITCRASQYIQGFLNWYQQKPGKAPKLLIYDASNLETGVPSRFSGSGSGTDFTLTISSLQPEDFATYYCQQSYSTPQTFGQGTKVDIKR
notes: human IgG4 with hinge S241P
B5: 160_01_G2 human IgG4 (antibody, V domains shown)
VH: EVRLVQSGAEVKKPGASVKVSCKVSGYTLTELSMHWVRQAPGKGLEWMGGFDPEDGETIYAQKFQGRVTMTEDTSTDTAYMELSSLRSEDTAVYYCATYTLDNMALTYWGQGTLVTVSS
VL: DIQMTQSPASLPTSVGDRVTITCRASQYIQGFLNWYQQKPGKAPRLLIYAASTLQDGVPSRFSGSGYGTDFTLTISSLQPEDFATYYCQQSYSTPWTFGQGTKVEIKR
notes: human IgG4 with hinge S241P; also called Antibody 160 01 G2 (derived from 2A5)
B6: 162_02_D3 human IgG4 (antibody, V domains shown)
VH: EVRLVQSGAEVKKPGASVKVSCKVSGYTLTELSMHWVRQAPGKGLEWMGGFDPEDGETIYAQKFQGRVTMTEDTSTDTAYMELSSLRSEDTAVYYCATAQIHPLGLTYWGQGTLVTVSS
VL: DIQMTQSPASLPTSVGDRVTITCRASQYIQGFLNWYQQKPGKAPRLLIYAASTLQDGVPSRFSGSGYGTDFTLTISSLQPEDFATYYCQQSYSTPWTFGQGTKVEIKR
notes: human IgG4 with hinge S241P; also called Antibody 162 02 D3 (derived from 2A5)
B7: 162_02_C6 human IgG4 (antibody, V domains shown)
VH: EVRLVQSGAEVKKPGASVKVSCKVSGYTLTELSMHWVRQAPGKGLEWMGGFDPEDGETIYAQKFQGRVTMTEDTSTDTAYMELSSLRSEDTAVYYCATAQKETYALTYWGQGTLVTVSS
VL: DIQMTQSPASLPTSVGDRVTITCRASQYIQGFLNWYQQKPGKAPRLLIYAASTLQDGVPSRFSGSGYGTDFTLTISSLQPEDFATYYCQNQYAGPWTFGQGTKVEIKR
notes: human IgG4 with hinge S241P; also called Antibody 162 02 C6 (derived from 2A5)
B8: 161_01_A12 human IgG4 (antibody, V domains shown)
VH: EVRLVQSGAEVKKPGASVKVSCKVSGYTLTELSMHWVRQAPGKGLEWMGGFDPEDGETIYAQKFQGRVTMTEDTSTDTAYMELSSLRSEDTAVYYCATAQPTALANTYWGQGTLVTVSS
VL: DIQMTQSPASLPTSVGDRVTITCRASQYIQGFLNWYQQKPGKAPRLLIYAASTLQDGVPSRFSGSGYGTDFTLTISSLQPEDFATYYCQQSYSTPWTFGQGTKVEIKR
notes: human IgG4 with hinge S241P; also called Antibody 161 01 A12 (derived from 2A5)
B9: 161_01_H10 human IgG4 (antibody, V domains shown)
VH: EVRLVQSGAEVKKPGASVKVSCKVSGYTLTELSMHWVRQAPGKGLEWMGGFDPEDGETIYAQKFQGRVTMTEDTSTDTAYMELSSLRSEDTAVYYCATAQPVWAPGTYWGQGTLVTVSS
VL: DIQMTQSPASLPTSVGDRVTITCRASQYIQGFLNWYQQKPGKAPRLLIYAASTLQDGVPSRFSGSGYGTDFTLTISSLQPEDFATYYCQQSYSTPWTFGQGTKVEIKR
notes: human IgG4 with hinge S241P; also called Antibody 161 01 H10 (derived from 2A5)
B10: 162_02_H5 human IgG4 (antibody, V domains shown)
VH: EVRLVQSGAEVKKPGASVKVSCKVSGYTLTELSMHWVRQAPGKGLEWMGGFDPEDGETIYAQKFQGRVTMTEDTSTDTAYMELSSLRSEDTAVYYCATAQKETYALTYWGQGTLVTVSS
VL: DIQMTQSPASLPTSVGDRVTITCRASQYIQGFLNWYQQKPGKAPRLLIYAASTLQDGVPSRFSGSGYGTDFTLTISSLQPEDFATYYCQNQYTGPWTFGQGTKVEIKR
notes: human IgG4 with hinge S241P; also called Antibody 162 02 H5 (derived from 2A5)
B11: 162_02_C3 human IgG4 (antibody, V domains shown)
VH: EVRLVQSGAEVKKPGASVKVSCKVSGYTLTELSMHWVRQAPGKGLEWMGGFDPEDGETIYAQKFQGRVTMTEDTSTDTAYMELSSLRSEDTAVYYCATAQKETYALTYWGQGTLVTVSS
VL: DIQMTQSPASLPTSVGDRVTITCRASQYIQGFLNWYQQKPGKAPRLLIYAASTLQDGVPSRFSGSGYGTDFTLTISSLQPEDFATYYCMQHYDGPWTFGQGTKVEIKR
notes: human IgG4 with hinge S241P; also called Antibody 162 02 C3 (derived from 2A5)
B12: 162_02_F3 human IgG4 (antibody, V domains shown)
VH: EVRLVQSGAEVKKPGASVKVSCKVSGYTLTELSMHWVRQAPGKGLEWMGGFDPEDGETIYAQKFQGRVTMTEDTSTDTAYMELSSLRSEDTAVYYCATAQKETYALTYWGQGTLVTVSS
VL: DIQMTQSPASLPTSVGDRVTITCRASQYIQGFLNWYQQKPGKAPRLLIYAASTLQDGVPSRFSGSGYGTDFTLTISSLQPEDFATYYCQNQYRGPWTFGQGTKVEIKR
notes: human IgG4 with hinge S241P; also called Antibody 162 02 F3 (derived from 2A5)
B13: 161_01_C09 human IgG4 (antibody, V domains shown)
VH: EVRLVQSGAEVKKPGASVKVSCKVSGYTLTELSMHWVRQAPGKGLEWMGGFDPEDGETIYAQKFQGRVTMTEDTSTDTAYMELSSLRSEDTAVYYCATAQLPYLAQTYWGQGTLVTVSS
VL: DIQMTQSPASLPTSVGDRVTITCRASQYIQGFLNWYQQKPGKAPRLLIYAASTLQDGVPSRFSGSGYGTDFTLTISSLQPEDFATYYCQQSYSTPWTFGQGTKVEIKR
notes: human IgG4 with hinge S241P; also called Antibody 161 01 C09 (derived from 2A5)

Key:
Assay in all cases: SPR off-rate screen, captured IgG4 supernatant, 25 C
[1] = molecular target: T1, mouse tenascin-C rCd4-His-FBG
Experimental: (§1) The 31 scFv of interest were sub-cloned into a human IgG4 expression vector for generation of antibodies as human IgG4 with a hinge-stabilising mutation (S241P; Angal et al, 1993). […] Briefly, surface plasmon resonance (SPR) experiments were performed using a BIAcore T100 instrument and followed the protocol according to the Human antibody capture kit protocol (GE, BR-1008-39). For off-rate screening, 10,000 response units (RU) of anti-human Fc IgG (GE, BR-1008-39) was immobilised on flow-cells (FC1 and FC2) of a Series 5 CM5 dextran sensor chip (BR-1005-30) using EDC/NHS cross-linking chemistry according to the amine coupling kit protocol (GE, BR-1000-50). Culture supernatants containing expressed IgG4 were diluted 1:2 with 2×PBS-T and injected into FC2 (flowrate 5 μl/min, 60 s contact time) to enable antibody capture at 25° C. […] A fixed concentration of antigen (15 nM of human and mouse TNC rCd4-His-FBG and 100 nM of human TNR rCd4-His-FBG) was injected with a flow-path via FC 1 (reference flow cell) and FC 2 (antibody capture flow cell), with a flow rate of 30 μl/min, and the association and dissociation phases measured over 1 and 5 min time periods, respectively. Regeneration of the binding surface employed 3M MgCl₂ with 30 s contact time. Off rates were determined by reference cell subtraction and fitting the sensogram experimental data assuming a 1:1 interaction using BIAevaluation software (GE, BR-1005-97).

[2] = molecular target: T2, human tenascin-C rCd4-His-FBG
Experimental: as §1

[3] = molecular target: T3, human tenascin-R rCd4-His-FBG
Experimental: as §1

Row | Binder | koff [1] [s⁻¹] | koff [2] [s⁻¹] | koff [3] [s⁻¹]
1 | B1 | 6.9e-06 | 5.6e-06 | 0.0037
2 | B2 | 3.9e-06 | 1.4e-07 | 0.0043
3 | B3 | 0.00171 | 2.8e-06 | 0.0025
4 | B4 | 3.7e-06 | 6.2e-07 | 0.004
5 | B5 | 1.39e-05 | 1.25e-05 | 0.001
6 | B6 | 1.06e-06 | 3.9e-07 | 0.0064
7 | B7 | 0.00024 | 5.3e-06 | 0.028
8 | B8 | 4.3e-06 | 1.3e-06 | 0.0042
9 | B9 | 1.9e-06 | 2.5e-05 | 0.0091
10 | B10 | 0.000167 | < 1e-05 | 0.082
11 | B11 | 0.002 | 1.49e-06 | 0.635
12 | B12 | 0.00033 | < 1e-05 | 0.088
13 | B13 | 2.3e-07 | 1.17e-07 | 0.00029

From patent US20170306005A1 (NASCIENT, published 2017)
